The EC50 (read off the curve) is the concentration at which the effect is half-maximal. A high value points to weaker potency.

From patent US20260217833A1 (APTEVO RESEARCH AND DEVELOPMENT, published 2026) come the findings set out here.

B1: CD4001086 (Fc fusion)
chain: EVVMTQSPGTLSLSPGERATLSCRSSQSLVHYNGYTYLHWYQQKPGQAPRLLIYKVSNRFSGIPARFSGSGSGTDFTLTISRLEPEDLAVYFCSQTTHVPLTFGQGTKVEIKGGGGSGGGGSGGGGSGGGGSEVQLVESGGGLVQPGRSLRLSCAASGFTFSSYAMSWVRQAPGKGLEWVASISSAGTYIYYADSVQGRFTISRDNGKNSLYLQMNSLRAEDTALYYCARHGNGYDPLWYFDVWGQGTMVTVSS
notes: Partly humanized 5B9 scFv on the N-terminus of a wildtype IgG1 Fc; not shown: wildtype IgG1 Fc region
B2: CD4001097 (Fc fusion)
chain: EVVMTQSPGTLSLSPGERATLSCRSSQSLVHYNGYTYLHWYQQKPGQAPRLLIYKVSNRFSGIPARFSGSGSGTDFTLTISRLEPEDLAVYFCSQTTHVPLTFGQGTKVEIKGGGGSGGGGSGGGGSGGGGSQVQLVESGGGLVKPGGSLRLSCAASGFTFSSYAMSWVRQAPGKGLEWVASISSAGTYIYYADSVKGRFTISRDNAKNSLYLQMNSLRAEDTAVYYCARHGNGYDPLWYFDVWGAGTTVTVSS
notes: As m65; not shown: wildtype IgG1 Fc region
B3: CD4001087 (Fc fusion)
chain: EVVMTQSPDTLSVSPGERATLSCRSSQSLVHYNGYTYLHWYQQKPGQVPRLLIYKVSNRFSGVPARFTGSGSGTEFTLTISSLQSEDFAVYFCSQTTHVPLTFGQGTKLEIKGGGGSGGGGSGGGGSGGGGSEVQLVESGGGLVQPGRSLRLSCAASGFTFSSYAMSWVRQAPGKGLEWVASISSAGTYIYYADSVQGRFTISRDNGKNSLYLQMNSLRAEDTALYYCARHGNGYDPLWYFDVWGQGTMVTVSS
notes: as for B2
B4: CD4001091 (Fc fusion)
chain: DVQMTQSPILLSASVGDRVTITCRSSQSLVHYNGYTYVHWYQQRTNGSPRLLIYKVSNRFSGVPDRFSGSGSGTDFTLTISSLQPEDIADYFCQQTTHVPLTFGAGTKVEIKGGGGSGGGGSGGGGSGGGGSEVQLVESGGGVVQPGRSLRLSCAASGFTFSSYAMSWVRQAPGKGLEWVASISSAGTYIYYADSVKGRFTISRDNSKNTLYLQMNGLRAEDTAVYYCARHGNGYDPLWYFDVWGQGTLVTVSS
notes: as for B2
B5: CD4001096 (Fc fusion)
chain: DVQMTQSPILLSASVGDRVTITCRSSQSLVHYNGYTYVHWYQQRTNGSPRLLIYKVSNRFSGVPDRFSGSGSGTDFTLTISSLQPEDIADYFCQQTTHVPLTFGAGTKVEIKGGGGSGGGGSGGGGSGGGGSQVQLVESGGGLVQPGGSLRLSCAASGFTFSSYAMSWVRQAPGKGLVWVASISSAGTYIYYADSVKGRFTISRDNAKNTLYLQMTSLRAEDTAIYYCARHGNGYDPLWYFDVWGQGALVTVSS
notes: as for B2
B6: CD4001094 (Fc fusion)
chain: DVQMTQSPILLSASVGDRVTITCRSSQSLVHYNGYTYVHWYQQRTNGSPRLLIYKVSNRFSGVPDRFSGSGSGTDFTLTISSLQPEDIADYFCQQTTHVPLTFGAGTKVEIKGGGGSGGGGSGGGGSGGGGSEVQLLESGGGLVQPGGSLRLSCAASGFTFSSYAMSWVRQAPGKGLEWVASISSAGTYIYYTDSVKGRFSISRDNSKNTLYLQMNSLRAEDTAVYYCARHGNGYDPLWYFDVWGQGTTVTVSS
notes: as for B2
B7: CD4001098 (Fc fusion)
chain: DVQMTQSPILLSASVGDRVTITCRSSQSLVHYNGYTYVHWYQQRTNGSPRLLIYKVSNRFSGVPDRFSGSGSGTDFTLTISSLQPEDIADYFCQQTTHVPLTFGAGTKVEIKGGGGSGGGGSGGGGSGGGGSQVQLVESGGGLVKPGGSLRLSCAASGFTFSSYAMSWVRQAPGKGLEWVASISSAGTYIYYADSVKGRFTISRDNAKNSLYLQMNSLRAEDTAVYYCARHGNGYDPLWYFDVWGAGTTVTVSS
notes: as for B2
B8: CD4001092 (Fc fusion)
chain: DVVMTQSPDSLAVSLGERATINCRSSQSLVHYNGYTYLHWYQQKPGQPPKLLIYKVSNRFSGVPDRFSGSGSGTDFTLTISSLQAEDVAVYFCSQTTHVPLTFGAGTKLELRGGGGSGGGGSGGGGSGGGGSEVQLVESGGGVVQPGRSLRLSCAASGFTFSSYAMSWVRQAPGKGLEWVASISSAGTYIYYADSVKGRFTISRDNSKNTLYLQMNGLRAEDTAVYYCARHGNGYDPLWYFDVWGQGTLVTVSS
notes: as for B2
B9: CD4001093 (Fc fusion)
chain: DVVMTQSPDTLSLSPGERATLSCRSSQSLVHYNGYTYLHWYQQQPGQAPRLLIYKVSNRFSGIPDRFSGSGSGTDFTLTISRLEPEDFAVYFCSQTTHVPLTFGQGTKLEIKGGGGSGGGGSGGGGSGGGGSEVQLLESGGGLVQPGGSLRLSCAASGFTFSSYAMSWVRQAPGKGLEWVASISSAGTYIYYTDSVKGRFSISRDNSKNTLYLQMNSLRAEDTAVYYCARHGNGYDPLWYFDVWGQGTTVTVSS
notes: as for B2
B10: CD4001095 (Fc fusion)
chain: DVVMTQSPDTLSLSPGERATLSCRSSQSLVHYNGYTYLHWYQQQPGQAPRLLIYKVSNRFSGIPDRFSGSGSGTDFTLTISRLEPEDFAVYFCSQTTHVPLTFGQGTKLEIKGGGGSGGGGSGGGGSGGGGSQVQLVESGGGLVQPGGSLRLSCAASGFTFSSYAMSWVRQAPGKGLVWVASISSAGTYIYYADSVKGRFTISRDNAKNTLYLQMTSLRAEDTAIYYCARHGNGYDPLWYFDVWGQGALVTVSS
notes: as for B2
B11: CD4001081 (bispecific antibody)
Fc-knob x CD40_1D5: EPKSSDKTHTCPPCPAPPAAAPSVFLFPPKPKDTLMISRTPEVTCVVVDVSHEDPEVKFNWYVDGVEVHNAKTKPREEQYNSTYRVVSVLTVLHQDWLNGKEYKCAVSNKALPAPIEKTISKAKGQPREPQVYTLPPSRDELTKNQVSLWCLVKGFYPSDIAVEWESNGQPENNYKTTPPVLDSDGSFFLYSKLTVDKSRWQQGNVFSCSVMHEALHNHYTQKSLSLSPGGGGSPSDIVMSQSPSSLAVSVGEKVTMSCKSSQSLLFSVNQKNYLAWYQQKPGQSPKLLIYWASTRESGVPDRFTGSGSGTDFTLTIGSVKAEDLAVYYCQHYYSYPWTFGGGTKLEIKGGGGSGGGGSGGGGSGGGGSQVQLQQSGAELMNPGASVRISCKATGYTFSTSWIEWIKQRPGHGLEWIGEILPGSGSTNYNEKFKGKATFTADTSSNTAYMQLSSLTFEDSAVYYCARGDDGSYVRWYFDVWGAGTTVTVSS
PDL_5F9 x Fc-Hole x CD40_1D5: EVQLVESGGGLVKPGGSLRLSCAASGFTFSDYGMAWVRQAPGKGLEWVAFITSLAYIIYYADSVKGRFTISRDNAKNSLYLQMNSLRAEDTAVYYCARNYGSSPYYFDYWGQGTLVTVSSGGGGSGGGGSGGGGSGGGGSDIQMTQSPSSLSASVGDRVTITCRASQDINKFLSWYQQKPGKAPKLLIHYTSSLQPGVPSRFSGSGSGTDFTLTISSLQPEDFATYYCLQYDNLYTFGQGTKLEIKEPKSSDKTHTCPPCPAPPAAAPSVFLFPPKPKDTLMISRTPEVTCVVVDVSHEDPEVKFNWYVDGVEVHNAKTKPREEQYNSTYRVVSVLTVLHQDWLNGKEYKCAVSNKALPAPIEKTISKAKGQPREPQVYTLPPSRDELTKNQVSLSCAVKGFYPSDIAVEWESNGQPENNYKTTPPVLDSDGSFFLVSKLTVDKSRWQQGNVFSCSVMHEALHNRFTQKSLSLSPGGGGSPSDIVMSQSPSSLAVSVGEKVTMSCKSSQSLLFSVNQKNYLAWYQQKPGQSPKLLIYWASTRESGVPDRFTGSGSGTDFTLTIGSVKAEDLAVYYCQHYYSYPWTFGGGTKLEIKGGGGSGGGGSGGGGSGGGGSQVQLQQSGAELMNPGASVRISCKATGYTFSTSWIEWIKQRPGHGLEWIGEILPGSGSTNYNEKFKGKATFTADTSSNTAYMQLSSLTFEDSAVYYCARGDDGSYVRWYFDVWGAGTTVTVSS

T1 sequence (P25942 21-277): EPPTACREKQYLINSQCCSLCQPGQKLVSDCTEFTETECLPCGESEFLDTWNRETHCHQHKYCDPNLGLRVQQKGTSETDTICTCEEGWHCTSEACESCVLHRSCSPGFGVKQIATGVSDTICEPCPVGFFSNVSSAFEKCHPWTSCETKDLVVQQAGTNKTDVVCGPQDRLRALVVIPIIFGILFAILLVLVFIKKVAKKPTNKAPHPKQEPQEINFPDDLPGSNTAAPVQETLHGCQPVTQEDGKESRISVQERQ
T2 sequence (Q9NZQ7 19-290): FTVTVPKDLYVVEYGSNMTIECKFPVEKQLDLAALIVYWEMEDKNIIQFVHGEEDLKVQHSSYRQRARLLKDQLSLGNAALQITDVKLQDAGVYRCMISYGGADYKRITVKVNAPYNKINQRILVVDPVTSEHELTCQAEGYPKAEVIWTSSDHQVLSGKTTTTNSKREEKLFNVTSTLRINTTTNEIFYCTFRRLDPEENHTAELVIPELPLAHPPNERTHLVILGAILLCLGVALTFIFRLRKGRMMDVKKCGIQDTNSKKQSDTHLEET

The first assay concerns the target T1, human CD40 full-length (human, UniProt P25942 21-277).
T1 construct: Also used for CD40 of Daudi cells, of CD40-expressing HEK293 cells and of the BPS CD40/NFkB HEK293 reporter cells where the row says so; also called CD4001012; CHOK1SV/CD40
As to the kind of experiment: flow cytometry, CHOK1SV/human CD40 cells. In general terms: Flow cytometry measures light scatter and fluorescence of single cells or particles in a stream.
Consider B1, for which the “EC50 (read off the curve)” value is ~2 nM.

For B2, the “EC50 (read off the curve)” value was ~4 nM. B3: the binding result is given as “binds”. Still for that read-out and setting: the same measure for B4: “binds”; for B5: “binds”. In the case of B6, the binding result was “binds”. Consider B7, for which the binding result is “binds”. The same measure, in the same setting: for B8 the value was “binds”. On the same count and under the same terms, for B9 the value was “binds”. The same measure, in the same setting: for B10 the value was “binds”.

Another assay addresses T2, Human PD-L1 full-length (human, UniProt Q9NZQ7 19-290).
T2 construct: also called PDL01021; CHOK1SV/huPDL1
As to the kind of experiment: flow cytometry, CHOK1SV/human PD-L1 cells.
B11: the binding result is “binds”.
